Reference: patent publication US20250042956A1 (University of California, published 2025)

T1: AT5G51230.1 EMF2 (Arabidopsis thaliana, UniProt Q8L6Y4 1-631)
T1 construct: Endogenous protein found by mass spectrometry; also called EMBRYONIC FLOWER 2
T1 sequence (looked up): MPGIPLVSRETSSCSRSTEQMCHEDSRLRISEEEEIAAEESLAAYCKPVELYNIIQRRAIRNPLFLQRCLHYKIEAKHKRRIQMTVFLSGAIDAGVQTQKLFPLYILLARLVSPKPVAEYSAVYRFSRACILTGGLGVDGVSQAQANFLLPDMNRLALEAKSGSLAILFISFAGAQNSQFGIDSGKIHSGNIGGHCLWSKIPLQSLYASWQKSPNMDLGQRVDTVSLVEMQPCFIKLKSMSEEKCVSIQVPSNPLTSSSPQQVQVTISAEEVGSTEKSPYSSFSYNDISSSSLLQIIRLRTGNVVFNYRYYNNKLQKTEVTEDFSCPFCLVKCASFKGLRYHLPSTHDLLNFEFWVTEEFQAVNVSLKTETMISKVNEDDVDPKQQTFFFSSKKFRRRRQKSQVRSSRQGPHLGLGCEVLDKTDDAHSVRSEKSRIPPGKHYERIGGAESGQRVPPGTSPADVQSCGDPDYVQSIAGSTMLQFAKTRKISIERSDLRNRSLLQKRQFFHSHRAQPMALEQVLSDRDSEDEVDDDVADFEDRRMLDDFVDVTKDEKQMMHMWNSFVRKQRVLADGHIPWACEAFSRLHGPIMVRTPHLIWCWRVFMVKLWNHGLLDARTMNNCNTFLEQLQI

T2: AT2G23380.1 CLF (Arabidopsis thaliana, UniProt P93831 1-902)
T2 construct: Endogenous protein found by mass spectrometry; also called CURLY LEAF
T2 sequence (looked up): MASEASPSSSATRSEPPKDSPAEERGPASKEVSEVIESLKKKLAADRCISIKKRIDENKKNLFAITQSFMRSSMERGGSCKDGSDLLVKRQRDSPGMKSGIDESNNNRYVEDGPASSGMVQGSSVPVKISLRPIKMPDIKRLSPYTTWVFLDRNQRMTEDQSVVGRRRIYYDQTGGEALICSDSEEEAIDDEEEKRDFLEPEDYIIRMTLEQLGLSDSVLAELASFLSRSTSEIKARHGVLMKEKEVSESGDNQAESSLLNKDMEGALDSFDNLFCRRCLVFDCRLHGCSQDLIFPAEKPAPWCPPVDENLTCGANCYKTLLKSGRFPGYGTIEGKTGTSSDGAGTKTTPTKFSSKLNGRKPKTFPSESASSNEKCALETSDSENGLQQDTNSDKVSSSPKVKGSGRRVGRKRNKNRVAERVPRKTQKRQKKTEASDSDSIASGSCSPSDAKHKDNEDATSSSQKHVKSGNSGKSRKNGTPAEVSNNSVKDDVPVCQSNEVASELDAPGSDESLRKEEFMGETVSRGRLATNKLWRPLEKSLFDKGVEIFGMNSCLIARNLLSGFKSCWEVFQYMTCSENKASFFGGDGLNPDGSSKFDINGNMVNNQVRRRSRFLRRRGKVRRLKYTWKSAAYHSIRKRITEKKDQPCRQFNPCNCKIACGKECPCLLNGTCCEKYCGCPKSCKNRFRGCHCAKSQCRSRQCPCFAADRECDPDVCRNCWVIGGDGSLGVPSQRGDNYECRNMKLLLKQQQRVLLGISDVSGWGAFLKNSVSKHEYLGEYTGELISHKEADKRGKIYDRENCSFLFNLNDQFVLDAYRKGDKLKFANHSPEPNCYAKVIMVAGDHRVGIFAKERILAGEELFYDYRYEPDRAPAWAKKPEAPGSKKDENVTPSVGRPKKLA

T3: AT4G35510.1 TRBIP1 (Arabidopsis thaliana)
T3 construct: Endogenous protein found by mass spectrometry
T3 chain: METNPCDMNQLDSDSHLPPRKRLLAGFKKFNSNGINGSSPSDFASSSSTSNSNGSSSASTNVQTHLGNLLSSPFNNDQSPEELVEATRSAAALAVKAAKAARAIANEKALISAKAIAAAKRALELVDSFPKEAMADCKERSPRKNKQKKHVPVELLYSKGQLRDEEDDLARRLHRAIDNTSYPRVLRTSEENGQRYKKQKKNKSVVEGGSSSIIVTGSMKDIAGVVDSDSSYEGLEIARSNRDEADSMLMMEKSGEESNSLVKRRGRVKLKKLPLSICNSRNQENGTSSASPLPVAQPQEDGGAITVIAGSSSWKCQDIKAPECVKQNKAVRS

T4: AT2G17540.2 TRBIP2 (Arabidopsis thaliana)
T4 construct: Endogenous protein found by mass spectrometry
T4 chain: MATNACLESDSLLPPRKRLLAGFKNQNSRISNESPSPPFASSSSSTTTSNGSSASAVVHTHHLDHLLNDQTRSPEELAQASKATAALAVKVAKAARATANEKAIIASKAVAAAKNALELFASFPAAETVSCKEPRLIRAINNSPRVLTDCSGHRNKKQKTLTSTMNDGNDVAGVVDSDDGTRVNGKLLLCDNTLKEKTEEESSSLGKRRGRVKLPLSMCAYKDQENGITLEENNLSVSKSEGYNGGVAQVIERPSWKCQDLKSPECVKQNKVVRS

T5: AT3G49850.1 TRB3 (Arabidopsis thaliana, UniProt Q9M2X3 1-295)
T5 construct: Endogenous protein found by mass spectrometry
T5 sequence: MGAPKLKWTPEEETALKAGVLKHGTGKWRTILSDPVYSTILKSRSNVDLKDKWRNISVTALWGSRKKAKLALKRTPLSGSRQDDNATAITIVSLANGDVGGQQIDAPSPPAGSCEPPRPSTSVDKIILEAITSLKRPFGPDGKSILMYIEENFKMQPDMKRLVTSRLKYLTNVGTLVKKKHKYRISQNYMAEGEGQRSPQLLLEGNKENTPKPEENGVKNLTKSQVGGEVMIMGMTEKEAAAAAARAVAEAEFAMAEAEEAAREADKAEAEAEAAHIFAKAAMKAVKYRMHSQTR


Columns and labels:
AT5G51230.1 EMF2 [1] = target: T1, AT5G51230.1 EMF2; assay: IP-MS rep 1
Method: (§1) The method of IP-MS used in this Example has been described in a recent paper (see e.g., Xue, Nat. Comm., 2021). Ten grams of unopened floral buds from Col-0 wild type and FLAG-tag transgenic plants, including PHD1, MOM1, AIPP3, MOM2, MORC6, PIAL2, TRB1, TRB2, TRB3, JMJ14, HD2A, HD2B, and ELF7 were collected and ground into fine powder with liquid nitrogen. These samples were resuspended with 25 mL IP buffer and homogenized until lump-free by dounce homogenizer. The lysate was filtered through Miracloth and incubated with 250 μL anti-FLAG M2 magnetic beads (Sigma) at 4° C. for 2 hours. The magnetic beads were washed with IP buffer and eluted with TBS containing 250 μg/mL 3×FLAG peptides. The eluted proteins were precipitated with trichloroacetic acid (Sigma) and subject to MS analyses as described previously (see e.g., Xue, Nat. Comm., 2021).

AT2G23380.1 CLF [2] = target: T2, AT2G23380.1 CLF; assay: IP-MS rep 1
Method: as §1

AT4G35510.1 TRBIP1 [3] = target: T3, AT4G35510.1 TRBIP1; assay: IP-MS rep 1
Method: as §1

AT2G17540.2 TRBIP2 [4] = target: T4, AT2G17540.2 TRBIP2; assay: IP-MS rep 1
Method: as §1

AT3G49850.1 TRB3 [5] = target: T5, AT3G49850.1 TRB3; assay: IP-MS rep 1
Method: as §1

AT5G51230.1 EMF2 [6] = target: T1, AT5G51230.1 EMF2; assay: IP-MS rep 2
Method: as §1

AT2G23380.1 CLF [7] = target: T2, AT2G23380.1 CLF; assay: IP-MS rep 2
Method: as §1

AT4G35510.1 TRBIP1 [8] = target: T3, AT4G35510.1 TRBIP1; assay: IP-MS rep 2
Method: as §1

AT2G17540.2 TRBIP2 [9] = target: T4, AT2G17540.2 TRBIP2; assay: IP-MS rep 2
Method: as §1

AT3G49850.1 TRB3 [10] = target: T5, AT3G49850.1 TRB3; assay: IP-MS rep 2
Method: as §1

AT5G51230.1 EMF2 [11] = target: T1, AT5G51230.1 EMF2; assay: X-link IP-MS
AT2G23380.1 CLF [12] = target: T2, AT2G23380.1 CLF; assay: X-link IP-MS
AT4G35510.1 TRBIP1 [13] = target: T3, AT4G35510.1 TRBIP1; assay: X-link IP-MS
AT2G17540.2 TRBIP2 [14] = target: T4, AT2G17540.2 TRBIP2; assay: X-link IP-MS
AT3G49850.1 TRB3 [15] = target: T5, AT3G49850.1 TRB3; assay: X-link IP-MS
AT4G20400.1 JMJ14 [16] = target: T6, AT4G20400.1 JMJ14 (Arabidopsis thaliana, UniProt Q8GUI6 1-954); assay: IP-MS rep 1
T6 construct: Endogenous protein found by mass spectrometry; also called JUMONJI 14
Method: as §1

AT4G20400.1 JMJ14 [17] = target: T6, AT4G20400.1 JMJ14; assay: IP-MS rep 2
Method: as §1

AT4G20400.1 JMJ14 [18] = target: T6, AT4G20400.1 JMJ14; assay: X-link IP-MS

T6 sequence (Q8GUI6 whole entry): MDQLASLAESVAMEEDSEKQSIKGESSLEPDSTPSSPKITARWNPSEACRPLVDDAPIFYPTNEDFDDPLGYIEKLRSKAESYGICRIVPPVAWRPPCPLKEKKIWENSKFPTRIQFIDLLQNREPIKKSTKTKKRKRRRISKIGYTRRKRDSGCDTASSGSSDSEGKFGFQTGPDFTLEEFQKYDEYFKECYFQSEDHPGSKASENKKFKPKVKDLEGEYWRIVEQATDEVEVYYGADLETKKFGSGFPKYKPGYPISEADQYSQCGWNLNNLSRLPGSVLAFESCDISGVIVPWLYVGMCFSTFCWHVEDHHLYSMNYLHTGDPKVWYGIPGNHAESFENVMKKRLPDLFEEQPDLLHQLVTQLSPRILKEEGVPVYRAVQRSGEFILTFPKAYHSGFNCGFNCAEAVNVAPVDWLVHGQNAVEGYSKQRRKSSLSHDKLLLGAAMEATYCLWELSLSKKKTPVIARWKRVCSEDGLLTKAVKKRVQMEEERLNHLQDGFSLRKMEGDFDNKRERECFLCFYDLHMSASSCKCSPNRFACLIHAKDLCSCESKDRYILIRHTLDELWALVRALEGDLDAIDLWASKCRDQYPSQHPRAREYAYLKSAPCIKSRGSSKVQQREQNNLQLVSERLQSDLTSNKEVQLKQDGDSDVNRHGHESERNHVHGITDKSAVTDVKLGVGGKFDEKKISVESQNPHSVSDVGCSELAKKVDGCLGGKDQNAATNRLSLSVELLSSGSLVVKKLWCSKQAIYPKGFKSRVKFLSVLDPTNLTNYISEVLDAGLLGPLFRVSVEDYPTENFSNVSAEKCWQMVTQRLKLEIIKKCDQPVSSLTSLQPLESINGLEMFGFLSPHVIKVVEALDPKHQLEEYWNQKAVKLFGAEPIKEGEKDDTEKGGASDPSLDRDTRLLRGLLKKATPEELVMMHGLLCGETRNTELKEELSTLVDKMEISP

Row | Binder | IP-MS count (AT5G51230.1 EMF2 [1]) | IP-MS count (AT2G23380.1 CLF [2]) | IP-MS count (AT4G35510.1 TRBIP1 [3]) | IP-MS count (AT2G17540.2 TRBIP2 [4]) | IP-MS count (AT3G49850.1 TRB3 [5]) | IP-MS count (AT5G51230.1 EMF2 [6]) | IP-MS count (AT2G23380.1 CLF [7]) | IP-MS count (AT4G35510.1 TRBIP1 [8]) | IP-MS count (AT2G17540.2 TRBIP2 [9]) | IP-MS count (AT3G49850.1 TRB3 [10]) | IP-MS count (AT5G51230.1 EMF2 [11]) | IP-MS count (AT2G23380.1 CLF [12]) | IP-MS count (AT4G35510.1 TRBIP1 [13]) | IP-MS count (AT2G17540.2 TRBIP2 [14]) | IP-MS count (AT3G49850.1 TRB3 [15]) | IP-MS count (AT4G20400.1 JMJ14 [16]) | IP-MS count (AT4G20400.1 JMJ14 [17]) | IP-MS count (AT4G20400.1 JMJ14 [18])
1 | FLAG-TRB1 (other, not shown: small tags and cut ends, FLAG-tagged TRB1 from its native promoter in the trb1 mutant background; Printed both as TRB-FLAG and FLAG-TRB1; the vector description gives a C-terminal 3xFLAG-BLRP, so the tag position under the label FLAG-TRB1 is not certain; also called TRB1-FLAG; TRB-FLAG) MGAPKQKWTQEEESALKSGVIKHGPGKWRTILKDPEFSGVLYLRSNVDLKDKWRNMSVMANGWGSREKSRLAVKRTFSLPKQEENSLALTNSLQSDEENVDATSGLQVSSNPPPRRPNVRLDSLIMEAIATLKEPGGCNKTTIGAYIEDQYHAPPDFKRLLSTKLKYLTSCGKLVKVKRKYRIPNSTPLSSHRRKGLGVFGGKQRTSSLPSPKTDIDEVNFQTRSQIDTEIARMKSMNVHEAAAVAAQAVAEAEAAMAEAEEAAKEAEAAEAEAEAAQAFAEEASKTLKGRNICKMMIRA | 0 | 0 | 5 | 18 | 0 | 0 | 0 | 11 | 22 | 0 | 0 | 0 | 0 | 0 | 0 |  |  | 
2 | FLAG-TRB2 (other, not shown: small tags and cut ends, FLAG-tagged TRB2 from its native promoter; tag position under the label FLAG-TRB2 not certain; also called TRB2-FLAG; TRB-FLAG) MGAPKQKWTPEEEAALKAGVLKHGTGKWRTILSDSEFSLILKSRSNVDLKDKWRNISVTALWGSRKKAKLALKRTPPGTKQDDNNTALTIVALTNDDERAKPTSPGGSGGGSPRTCASKRSITSLDKIIFEAITNLRELRGSDRTSIFLYIEENFKTPPNMKRHVAVRLKHLSSNGTLVKIKHKYRFSSNFIPAGARQKAPQLFLEGNNKKDPTKPEENGANSLTKFRVDGELYMIKGMTAQEAAEAAARAVAEAEFAITEAEQAAKEAERAEAEAEAAQIFAKAAMKALKFRIRNHPW |  |  | 22 | 10 |  |  |  | 22 | 10 |  |  |  | 16 | 7 |  | 3 | 4 | 78
